Data published in patent publication US20180282410A1 (Hoffmann-La Roche, published 2018).
Changes are numbered by the printed parent chain. Read-outs that look alike come from different tables or passages of the source.

B1: Molecule F, 2+1 CrossFab-IgG (VH/VL exchange in CD3 binder, CD3 binder V9, Robo 4 binders 01F05) (bispecific antibody)
chain 1: not shown
chain 2: QVQLKQSGAELVKPGASVKISCKTSVYTFTYGYMHWVEQKPGQGLEWIGRIDPDSGNSMYNQKFQGRATLTRDKSSSTVYMELRSLTSEDSAVYYCARSMRYSGYRDYALDLWGQGTQVTVSSASTKGPSVFPLAPSSKSTSGGTAALGCLVKDYFPEPVTVSWNSGALTSGVHTFPAVLQSSGLYSLSSVVTVPSSSLGTQTYICNVNHKPSNTKVDKKVEPKSCDKTHTCPPCPAPEAAGGPSVFLFPPKPKDTLMISRTPEVTCVVVDVSHEDPEVKFNWYVDGVEVHNAKTKPREEQYNSTYRVVSVLTVLHQDWLNGKEYKCKVSNKALGAPIEKTISKAKGQPREPQVCTLPPSRDELTKNQVSLSCAVKGFYPSDIAVEWESNGQPENNYKTTPPVLDSDGSFFLVSKLTVDKSRWQQGNVFSCSVMHEALHNHYTQKSLSLSPGK
chain 3: QLVLTQSPSASASLGASVKLTCTLSSQHSSYGITWLQQHPDKAPKYVMYLKSDGSHTKGADIPDRFSGSSSGVHRYLSISNVQPEDEAIYFCVTYDSTHVFGSGTQLTVLGQPKAAPSVTLFPPSSEELQANKATLVCLISDFYPGAVTVAWKADSSPVKAGVETTTPSKQSNNKYAASSYLSLTPEQWKSHRSYSCQVTHEGSTVEKTVAPTECS
chain 4: EVQLVESGGGLVQPGGSLRLSCAASGYSFTGYTMNWVRQAPGKGLEWVALINPYKGVSTYNQKFKDRFTISVDKSKNTAYLQMNSLRAEDTAVYYCARSGYYGDSDWYFDVWGQGTLVTVSSASVAAPSVFIFPPSDEQLKSGTASVVCLLNNFYPREAKVQWKVDNALQSGNSQESVTEQDSKDSTYSLSSTLTLSKADYEKHKVYACEVTHQGLSSPVTKSFNRGEC
B2: Molecule M, 2+1 CrossFab-IgG, inverted, with charge modifications (VH/VL exchange in CD3 binder, charge modification in Robo 4 binders, CD3 binder of SEQ ID … (bispecific antibody)
chain 1: QVQLKQSGAELVKPGASVKISCKTSVYTFTYGYMHWVEQKPGQGLEWIGRIDPDSGNSMYNQKFQGRATLTRDKSSSTVYMELRSLTSEDSAVYYCARSMRYSGYRDYALDLWGQGTQVTVSSASTKGPSVFPLAPSSKSTSGGTAALGCLVEDYFPEPVTVSWNSGALTSGVHTFPAVLQSSGLYSLSSVVTVPSSSLGTQTYICNVNHKPSNTKVDEKVEPKSCDKTHTCPPCPAPEAAGGPSVFLFPPKPKDTLMISRTPEVTCVVVDVSHEDPEVKFNWYVDGVEVHNAKTKPREEQYNSTYRVVSVLTVLHQDWLNGKEYKCKVSNKALGAPIEKTISKAKGQPREPQVCTLPPSRDELTKNQVSLSCAVKGFYPSDIAVEWESNGQPENNYKTTPPVLDSDGSFFLVSKLTVDKSRWQQGNVFSCSVMHEALHNHYTQKSLSLSP
chain 2: not shown
chain 3: EVQLLESGGGLVQPGGSLRLSCAASGFTFSTYAMNWVRQAPGKGLEWVSRIRSKYNNYATYYADSVKGRFTISRDDSKNTLYLQMNSLRAEDTAVYYCVRHGNFGNSYVSWFAYWGQGTLVTVSSASVAAPSVFIFPPSDEQLKSGTASVVCLLNNFYPREAKVQWKVDNALQSGNSQESVTEQDSKDSTYSLSSTLTLSKADYEKHKVYACEVTHQGLSSPVTKSFNRGEC
chain 4: B1 chain 3 with E127K, E128K
B3: Molecule I, 1+1 Fab-CrossFab (VH/VL exchange in CD3 binder, CD3 binder V9, Robo 4 binder 01F09) (bispecific antibody)
chain 1: QIQLQESGPGLVKPSQSLSLTCSVTGYSISSGSLWTWIRQFPGNNLEWMGYISYAGGIDYNPSLTSRISITRDTSRNQFFLQLESVTTQDTATYYCATPGGYPFHFDYWGQGTMVTVSSASTKGPSVFPLAPSSKSTSGGTAALGCLVKDYFPEPVTVSWNSGALTSGVHTFPAVLQSSGLYSLSSVVTVPSSSLGTQTYICNVNHKPSNTKVDKKVEPKSCDGGGGSGGGGSDIQMTQSPSSLSASVGDRVTITCRASQDIRNYLNWYQQKPGKAPKLLIYYTSRLESGVPSRFSGSGSGTDYTLTISSLQPEDFATYYCQQGNTLPWTFGQGTKVEIKSSASTKGPSVFPLAPSSKSTSGGTAALGCLVKDYFPEPVTVSWNSGALTSGVHTFPAVLQSSGLYSLSSVVTVPSSSLGTQTYICNVNHKPSNTKVDKKVEPKSC
chain 2: QPVLTQSPSASASLGASVKLTCTLNSQFSTYNIGWYQQHRDKPPKYVMFVKGDGGHSKADGIPDRFSGSSSGADRYLTISNIQAEDEAIYFCGADYNNAGQYGCVFGSGTHFTVLGQPKAAPSVTLFPPSSEELQANKATLVCLISDFYPGAVTVAWKADSSPVKAGVETTTPSKQSNNKYAASSYLSLTPEQWKSHRSYSCQVTHEGSTVEKTVAPTECS
chain 3: B1 chain 4
B4: Molecule C, 1+1 CrossFab-IgG (VH/VL exchange in CD3 binder, CD3 binder V9, Robo 4 binder 01E06) (bispecific antibody)
chain 1: not shown
chain 2: DFKMTQSPDILSPSLGESVTITCQSSQNIYSNLAWYQQKPGEHPKLLIYTASILADGIPSRFTGSGSGTQFSLKISSLQPDDVANYYCQQYVYYRTFGPGTKLEIKRTVAAPSVFIFPPSDEQLKSGTASVVCLLNNFYPREAKVQWKVDNALQSGNSQESVTEQDSKDSTYSLSSTLTLSKADYEKHKVYACEVTHQGLSSPVTKSFNRGEC
chain 3: B1 chain 4
chain 4: DKTHTCPPCPAPEAAGGPSVFLFPPKPKDTLMISRTPEVTCVVVDVSHEDPEVKFNWYVDGVEVHNAKTKPREEQYNSTYRVVSVLTVLHQDWLNGKEYKCKVSNKALGAPIEKTISKAKGQPREPQVCTLPPSRDELTKNQVSLSCAVKGFYPSDIAVEWESNGQPENNYKTTPPVLDSDGSFFLVSKLTVDKSRWQQGNVFSCSVMHEALHNHYTQKSLSLSPGK
B5: Molecule G, 1+1 Fab-CrossFab (VH/VL exchange in CD3 binder, CD3 binder V9, Robo 4 binder 01E06) (bispecific antibody)
chain 1: EVQLVESGGGLSQPGNSLKLSCEASGFTFRNYDMSWVRQAPGKGLEWVAYISSGGGPIYYVDAVKGRFTISRDNAKNLLFLQMNNLRSEDTAVYYCARDLADIGVFDYWGQGTMVTVSSASTKGPSVFPLAPSSKSTSGGTAALGCLVKDYFPEPVTVSWNSGALTSGVHTFPAVLQSSGLYSLSSVVTVPSSSLGTQTYICNVNHKPSNTKVDKKVEPKSCDGGGGSGGGGSDIQMTQSPSSLSASVGDRVTITCRASQDIRNYLNWYQQKPGKAPKLLIYYTSRLESGVPSRFSGSGSGTDYTLTISSLQPEDFATYYCQQGNTLPWTFGQGTKVEIKSSASTKGPSVFPLAPSSKSTSGGTAALGCLVKDYFPEPVTVSWNSGALTSGVHTFPAVLQSSGLYSLSSVVTVPSSSLGTQTYICNVNHKPSNTKVDKKVEPKSC
chain 2: B4 chain 2
chain 3: B1 chain 4

Assays:
Assay in all cases: cell-based or functional assay
[1] = biological target: T1, full-length human Robo 4 (on cells) (human, UniProt Q8WZ75 28-1007)
T1 sequence: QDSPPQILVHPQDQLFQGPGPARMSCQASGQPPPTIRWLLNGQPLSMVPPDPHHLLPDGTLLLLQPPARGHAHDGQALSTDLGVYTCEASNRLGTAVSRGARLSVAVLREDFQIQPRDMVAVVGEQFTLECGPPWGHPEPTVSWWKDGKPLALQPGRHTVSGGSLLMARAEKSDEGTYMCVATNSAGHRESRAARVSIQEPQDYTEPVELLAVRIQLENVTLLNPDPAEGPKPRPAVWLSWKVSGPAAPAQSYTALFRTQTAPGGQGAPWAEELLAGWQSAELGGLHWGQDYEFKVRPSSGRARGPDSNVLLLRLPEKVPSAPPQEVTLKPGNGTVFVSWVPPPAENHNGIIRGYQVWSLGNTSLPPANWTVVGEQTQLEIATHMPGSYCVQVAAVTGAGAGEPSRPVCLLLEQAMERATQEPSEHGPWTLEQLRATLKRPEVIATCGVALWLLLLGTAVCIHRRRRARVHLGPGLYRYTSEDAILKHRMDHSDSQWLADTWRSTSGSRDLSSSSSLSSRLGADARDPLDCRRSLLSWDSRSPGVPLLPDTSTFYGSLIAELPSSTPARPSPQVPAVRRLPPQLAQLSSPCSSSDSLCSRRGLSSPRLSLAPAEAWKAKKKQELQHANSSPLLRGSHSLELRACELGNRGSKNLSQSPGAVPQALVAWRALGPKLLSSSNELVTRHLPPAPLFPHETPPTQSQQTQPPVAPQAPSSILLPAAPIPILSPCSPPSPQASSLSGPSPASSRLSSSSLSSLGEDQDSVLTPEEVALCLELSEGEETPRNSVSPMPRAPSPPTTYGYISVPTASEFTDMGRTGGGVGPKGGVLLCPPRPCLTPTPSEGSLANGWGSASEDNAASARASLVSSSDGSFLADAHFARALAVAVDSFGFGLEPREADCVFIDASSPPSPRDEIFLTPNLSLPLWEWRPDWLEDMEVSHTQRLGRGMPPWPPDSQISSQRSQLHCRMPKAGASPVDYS

[2] = biological target: T1, full-length human Robo 4 (on cells); remark: listed apart in the source
[3] = biological target: T2, mouse Robo 4 on MS-1 mouse endothelial cells (mouse, UniProt Q8C310 28-1012)
T2 sequence: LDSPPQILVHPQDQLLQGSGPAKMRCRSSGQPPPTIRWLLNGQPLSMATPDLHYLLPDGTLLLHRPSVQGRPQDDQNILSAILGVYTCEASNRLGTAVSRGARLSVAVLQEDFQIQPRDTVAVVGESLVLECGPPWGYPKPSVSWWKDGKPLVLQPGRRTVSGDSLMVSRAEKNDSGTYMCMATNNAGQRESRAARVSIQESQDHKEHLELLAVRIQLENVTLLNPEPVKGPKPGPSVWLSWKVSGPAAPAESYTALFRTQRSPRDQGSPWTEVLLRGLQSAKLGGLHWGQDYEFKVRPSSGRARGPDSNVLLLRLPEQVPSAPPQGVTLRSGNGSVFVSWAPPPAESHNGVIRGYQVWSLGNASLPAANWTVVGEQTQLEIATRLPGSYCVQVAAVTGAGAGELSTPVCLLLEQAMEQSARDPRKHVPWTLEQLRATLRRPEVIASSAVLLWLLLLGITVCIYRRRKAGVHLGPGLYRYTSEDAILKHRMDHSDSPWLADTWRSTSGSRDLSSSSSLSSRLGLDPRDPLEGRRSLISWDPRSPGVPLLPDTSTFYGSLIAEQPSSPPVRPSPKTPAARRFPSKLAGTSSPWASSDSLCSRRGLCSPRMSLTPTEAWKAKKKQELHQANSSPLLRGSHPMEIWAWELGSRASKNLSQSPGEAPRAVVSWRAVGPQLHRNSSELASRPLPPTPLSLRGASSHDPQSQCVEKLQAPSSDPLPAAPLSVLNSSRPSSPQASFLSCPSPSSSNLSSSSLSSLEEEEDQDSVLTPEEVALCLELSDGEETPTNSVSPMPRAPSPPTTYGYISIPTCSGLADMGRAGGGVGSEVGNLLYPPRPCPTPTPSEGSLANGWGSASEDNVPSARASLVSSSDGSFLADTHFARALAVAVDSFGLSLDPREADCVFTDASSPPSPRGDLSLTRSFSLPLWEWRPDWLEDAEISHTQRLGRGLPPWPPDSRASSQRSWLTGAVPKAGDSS

[4] = biological target: T1, full-length human Robo 4 (on cells); remark: listed apart in the source
[5] = biological target: T2, mouse Robo 4 on MS-1 mouse endothelial …; remark: listed apart in the source

Binder | EC50 of T-cell mediated killing of HUVECs (LDH release, human PBMCs, E:T 10:1), 24 h [1] | EC50 of T-cell mediated killing of HUVECs (LDH release, human PBMCs, E:T 10:1), 48 h [1] | EC50 of T-cell mediated killing of HUVECs (LDH release, human PBMCs, E:T 10:1), 24 h [2] | EC50 of T-cell mediated killing of HUVECs (LDH release, human PBMCs, E:T 10:1), 48 h [2] | EC50 of T-cell mediated killing of MS-1 cells (LDH release, human PBMCs, E:T 10:1), 24 h [3] | EC50 of T-cell mediated killing of MS-1 cells (LDH release, human PBMCs, E:T 10:1), 48 h [3] | EC50 of T-cell mediated killing of HUVECs (LDH release, human pan T cells, E:T 5:1, 22 h) [4] | EC50 of T-cell mediated killing of MS-1 cells (LDH release, human pan T cells, E:T 5:1, 17 h) [5]
B1 | 0.065 nM | 0.322 nM | 0.104 nM | 0.154 nM | ~0.164 nM | 0.196 nM |  | 
B2 |  |  | 0.173 nM | 0.125 nM | 0.275 nM | 0.119 nM |  | 
B3 |  |  |  |  |  |  | 0.198 nM | 4.56 nM
B4 |  |  |  |  |  |  | 0.046 nM | 0.472 nM
B5 |  |  |  |  |  |  | 0.036 nM | 0.352 nM
